Measured values published in the DeepSol protein solubility set.

Assay: soluble on expression in E. coli; label from the status in PepcDB or PDB records

Sequence	soluble on expression in E. coli
MSLDATYVETSTSKLGCRSAVADQVEKFQFGQYECDAPHKLYNSLIDNAKKFIESPDFILLGGDLIAHGLNVTKQMLIDNFNNITNPIEKKYPNTKIYITLGNNDFQKNYGSFDTDLTDFETVFEIFGKWMNTEQAETFKKGGYYYADFPSSNFRFLFLNTVIYSRKRTFNETLTDPYDQFAWIRKMYKDAVQKGYKVGIALHIPPGVVYTDNKVGWNLKYINTFAEIMKECDFSFIISGHSHTDMILPLYTPNSDTDNILYSLSAPSVSPTHYNNPGFRHYLLDQEIIKDFIQYYADIMLNPSELNWEIEYKFSEAYKTQNITRNSINDAVKWIRSTGEGQWRYRERVYSREGHHHHHH	soluble
MAHHHHHHMSYPYYTEFFVRFPKFKEREESERTVDPRIELEKKCQAKCVRPVNEYQSCVSRVQAKPEMKGNCLGQHEEMYMCIDHCVAKDLFNYLV	not soluble
SLGQADTERLLSDRKLVLLVDLDQTLIHTTNDNVPNNLKDVYHFQLYGPNSPWYHTRLRPGALEFLAKMHPYYELHICTFGARNYAHMIAQFLDKDGNFFSHRILSRDECFNATSKTDNLKALFPCGDSMVCIIDDREDVWNMASNLIQVKPYHFFRHTGDINAPPGMSKNELDGKGVDFKELMSQSQK	soluble
MRRFQRSTVIDAPRELVWAFHEQADVLEQLTPPWLPVEVVRREGGLGPGAVSEFRLWLGPVPIRWVATHNDDYEPGRCFCDRQSQGPFADWLHRHIFSREGDRTRLIDEVEYALPGGWLPELSVGPVVDAQLERLFAYRQQVTKQWCESRRDAFLQSNRTTKGLQSLLEHHHHHH	soluble
MGSDKIHHHHHHVILSDWLAARLDRSAAEPVYRQTLRLMQQAILTGQLPPGTKLPSSRTLAQDLGIARNTVLHVYDQLTAEGYVISTTGSGTYVADTRPDTAAVNARKKPVVVSGIETDADAAIETTRRPKRDLGDLSTRGRRLIDTAGVSAKQWGAFMPGVPDVAEFPARTWSRLQARLWKEANPDLLTYAPGGGYRPLRRALSDYLRVARSVNCTPDQIIITTGIHQSIDLAVRLLTDVGDRAWVEEPCYWGARSVLQSSGITLVPVPVDDEGLNPREQDLQQPPRLALVTPSHQYPLGMVMSLARRRTLLEYARQHNVWIIEDDYDSEFRYGSRPLASLQGLDDAGQVIYVGSLGKMLFPGLRIGYMIAPEHLVDTFRTGVAELYREGQLMQQAVMTDFIMDGHLTSHVRRMRALYGERRQILIDAITARFGSELPVMGDEAGLHLVLGLPDHANDRAVTAAAYDAGVIVRPLASYYSGDTPARRGLLLGYACVPNDRIGPAFDTLARVIEQTALKTPTRAA	not soluble
MGSDKIHHHHHHMDKLMKICPTREIELQQKAKQLYEEEENRKIAYNAGLVEAEGYCQYTRLKEIIEFAKKCGYKKIGIAFCIGLKREMQTVQKIFEHHGFEVFSVICKNGAMPKSTIGLEASQTISKCSDEVMCNPIGQALFLNEAKVDLNVILGLCVGHDTLAMKYMEAPITTLVVKDRVTGHNPVAAIYNAESYFEKKLFDKDEE	not soluble
MSTFSLLRLPQKTLKNVILQMGHIELICTSLLSNKTKHFIREFCIFKASRFSIELNQSVQFKMFNNGRWSEYSFKNGMICITSFGIIQITMTFRTPQFNAGSWFNHFLCVLSPSKIESVTVTDAFDELRFQLVKKFLEKIQFMVLWIRTTSATSHMVRLFSEVLPVDQFWLSQDDRLNSSQFSALRPVLSKELETIFIDNRMPLNDLLITCSTAIHIIKSPLTDKEINVFLKHWMTGLKPELEHIYIEKSGVFNQTQLLDGINHDAPTDRKFKMYGNDAFRGIDLHLGQGIKATLVYENDFFHSKIHIASHNSKYISFE	not soluble
DLTIDNGPEKGDLLVLGWGSTYGAIKKAVEQAREGGLDVAHAHLRYINPFPKNLGAMLGNFKKVLIPENNCGQLLSLIRDKFLIEPVGFSKVQGLPFNEMEIEEKITDILKEL	not soluble
MGSDKIHHHHHHMFFEGVEQLIEEILKLRKQGLSFRKIAQALNTTVGKVHYRYKKHEELQHQKGQAKPAAKGEWQLPGSYPVTEITLLPQGPTTLYAFWDTSEQTRGLVSYQTDKDWEQLEKRLRLYDVTSLLFDGRRANRYVDIHLPEMTNNWLIEHVEPNCTYLIDLGVITPSGAFLPVVRSTPIETPRQRNDQYNFRKEDVLDWQYGLSEEPKWLEHFSTYSYYEKTK	not soluble
MGSDKIHHHHHHMRREKKKGSDDQMADENEEYLMETRFSAEHIGLKLLEKKIITEQQFEDALRRQKSRGGGLGDVLIELGYLTEERLNQLLNAFPSVPKTIEDTGLDASFLADLVLKHSLSLREFRLADMVRRVKLPLSIVDSIVETLQREKMLEVKGGDGLARATYRFSITGIGENRAAGLLEICRYVGPAPVSLSDYREKVLTQSIQRVVVNPLTLKNALSHLVINPDLLKALGPALTSGQTIFLYGPTGNGKSSIAEAIGNVLPGTIFVPYAVYVEGELITVFDPVNHVPAPSETEDGKMDHRWLQIRRPVIMTGGELTLRTLDLEFNPISKFYIAPLQMKANNGLFIIDDFGRQQIEPKMLLNRWIVPLEKRVDFLTLHTGMKFSIPFDQLVIFATNLKPMELADEAFLRRIRYKIFIDYPSKEDFEVIFRKACEMKNVAFDPKAFQFLQDIYEKLGIQRSANHPRDLLEHIIDQSRYYGQEPELTVEGVSAAWEQNFIKNF	not soluble
SLTGAVDKLTLIHYNDVYNIDANSKSEPIGGAARFCTAVRSFSHLNPLVLFSGDAFSPSMLSTFTKGEQMIPVLNTVGTHCAVFGNHDFDHGLDILNEWVEKTNFPWLMSNVVDNETGRPLGGGKITHIMHHNEVKVGLIGLVEKEWLDTLPTIDPNEVTYIDFIKAGNQLADELHNQGCDIIIALTHMRTPNDIELAKHSGHIDLILGGHDHVYEILNIDDTHVIKSGTDFRQFSKIGISLNRNQNGKININVEKVDVNSTKYSEDSELKNELKKYSETIESKMDEVLGTFAVELDGRFSAIRTSETNLGNWICDVALAATGADCVIINSGTFRSDQIHPAGPFTMRDLINIIPMQDPLIVLEVTGKILHQALENSVSTYPKLEGRFPQIAGMSFVFDPTKKAGERVEPKLIRLGDEWLNLEQTYTLCVKSYIYGGCDGYNMFKECRVLMDDDAAPELGLAIQNHFKAIDVRLGK	soluble
MAHHHHHHMLTTFNIIWKREQAENVNNEKQCKTVSESLGGNAESSESPSSSISEFDQLVNDVEDLLEEQQINETEKLYKISKCPNEKFNKKNKLSITDLSAQLWCEQQLELILTTGKKRETEAMRLGIERHEVLEKADHLIIDVEVNTREESLGYRLLNTIILLEQLYEYKKAREVWVFGVIRGYVLRGIIDELRIEYDHVSRREYLIISDTKTRKEKREPSFAQKKSSAIQVQTYCLLLQHLKSGKADFKKLFEIYECDPTFEFTAIDLIKYKNLENLCKVVNCLFVRLPKIKEEMEIVYEHQGVEFSRNHIPYFYHSTLFTINILLDYWDGKRSSDVVENSDKWKCKFCDFVRNCVRCPLDG	not soluble
MEHITLFTDILPEEQERMRICFHAREMTFRNGETIMEYSSSMKKIGLILYGRAILYCCDTEGNQYLIDEFNKDAVFGEPFLLPADSQHYYVCAAEETKIMFIDYEHVIKRCDQACYHHSQMVSNLLQLTAIQSRQQNERIYMLSRSSTRKKLMAYLNALSTEKHSKDLKLPMSYTALAQYLSVDRSAMTRELKNLEEEGIIKKSGKQIHII	not soluble
DTTKNIFIEGDNLDALKLLQENYLGKIKMVYIDPPYNTGNDFVYADDFVDEVSEFFLRSNQVDREGNRLTANPETSGRFHSDWLSMMYSRLKLSRNLLRDDGLIVIHIDENEYPNLEKLLAEIYGEKNNLGTIVWDKRNPKGDATGVAQQHELICIYCKDREFFKTTCEFQRPKENAGKMLAKAKQILSKEGGVTEKARKEYKDWVNQQDLTGGEKAYNQIDDNGDVFRPVSMAWPNKKKAPEDYFIPLIHPVTGKECPVPERGWRNPPATMQELLKSGLIIFGPDEKTQPTRKYRLNDNLFENIPSLLYYGGSDDALLADLKIPFDTPKPVQVAKRLIQSICKNDDILIDFFAGSCTAAHALMLLNAEDGANRRFIMVQLPEECDEKSEAKKLGYSVVSEIGKNRIRRAAKKIREEFSEILATRNTELDLGFRLLKVDTSNMAD	not soluble
EERNDWHFNIGAMYEIENVEGYGEDMDGLAEPSVYFNAANGPWRIALAYYQEGPVDYSAGKRGTWFDRPELEVHYQFLENDDFSFGLTGGFRNYGYHYVDEPGKDTANMQRWKIAPDWDVKLTDDLRFNGWLSMYKFANDLNTTGYADTRVETETGLQYTFNETVALRVNYYLERGFNMDDSRNNGEFSTQEIRAYLPLTLGNHSVTPYTRIGLDRWSNWDWQDDIEREGHDFNRVGLFYGYDFQNGLSVSLEYAFEWQDHDEGDSDKFHYAGVGVNYSFHHHHHH	soluble
